Measurements from publication PMC9671094.
pKd: −log10 of the molar value.

Experiments:
PG16.VHVL (human) = experiment: SPR; IgG captured as ligand by anti-human IgG (Human Antibody Capture Kit) on a GLC chip, ProteOn XPR36; trimer as analyte; 1x HBS-EP+ pH 7.4 with 1 mg/ml BSA; 1:1 binding model; highest SOSIP concentration 5 uM or 10 uM
[1] = target: PG16.HCDR3 + 1MUT (human); experiment: as above
PG16.iGL (human) = experiment: as above
PCT64.iGL (human) = experiment: as above
PG9.iGL.1MUT (human) = experiment: as above
PG16 (human) = experiment: as above
PG9 (human) = experiment: as above
PG9.HCDR3.1MUT (human) = experiment: as above
PG9.VHVL (human) = experiment: as above
[2] = target: ApexGT2.2MUT trimer (HIV-1 isolate BG505); experiment: cryo-EM structure

Row | Substance | pKd (PG16.VHVL (human)) | pKd [1] | pKd (PG16.iGL (human)) | pKd (PCT64.iGL (human)) | pKd (PG9.iGL.1MUT (human)) | pKd (PG16 (human)) | pKd (PG9 (human)) | pKd (PG9.HCDR3.1MUT (human)) | pKd (PG9.VHVL (human)) | stoichiometry N (Fab per trimer) [2]
1 | BG505 SOSIP.D664 (complex) | 6.00 | 6.56 | < 5.30 | < 5.30 | 6.19 | 7.42 | 7.80 | 6.50 | 7.14 | –
2 | PCT64 LMCA Fab | – | – | – | – | – | – | – | – | – | 1
